Experimental data reported in publication PMC9163697, “Mechanistic insights into the activation of the IKK kinase complex by the Kaposi’s sarcoma herpes virus oncoprotein vFLIP” (The Journal of Biological Chemistry, 2022).

Tests used:
[1] = molecular target: T1, WT vFLIP(1–177) (Kaposi's sarcoma-associated herpes …, UniProt Q76RF1 1-177); experiment: native gel or EMSA; blue native gel (4–20%), 8–10 μg of purified complexes of IKKγ(150–272) with vFLIP or complexes assembled from the concentrated proteins; bands excised and analysed by SDS-PAGE; settings: both partners purified
T1 construct: vFLIP of the Kaposi's sarcoma-associated herpes virus (KSHV), residues 1-177; also called recombinant vFLIP; source: mutants said to be expressed in E. coli

[2] = molecular target: the molecule itself; experiment: native MS; proteins and complexes exchanged into 200 mM ammonium acetate pH 8.5, 3.2 μM, nanoelectrospray, Synapt QToF; collision-induced dissociation of selected species
[3] = molecular target: T1, WT vFLIP(1–177); experiment: as above; settings: both partners purified

B1: IKKγ(150–272) (domain or fragment, UniProt Q9Y6K9 150-272, looked up)
chain: LGELQESQSRLEAATKECQALEGRARAASEQARQLESEREALQQQHSVQVDQLRMQGQSVEAALRMERQAASEEKRKLAQLQVAYHQLFQEYDNHIKSSVVGSERKRGMQLEDLKQQLQQAEE
notes: IKKγ (Nemo), regulatory subunit of the IKK kinase complex, residues 150-272; also called Nemo; WT IKKγ
stoichiometry N [1]: 1 vFLIP per IKKγ
binding result [2]: binds
stoichiometry N [3]: 0.5 vFLIP per IKKγ
